Article PMC3441139

Molecular target: N-terminal EGFP fusion to zebrafish P2X4 crystallized construct (EGFP-ΔP2X4-A) (Danio rerio) (UniProt F8W463)
Test: SEC

N-terminal EGFP fusion to zebrafish P2X4 crystallized construct (EGFP-ΔP2X4-A) (from UniProt F8W463 1-389) (receptor)
stoichiometry N: 3
